Assay results as given in patent publication US12180485B2, “Repressible control of gene expression” (TRUSTEES OF BOSTON UNIVERSITY, priority 2020, dated 2024).
“Also recorded” adds a separate entry of the source.

B1: 559/560: RfxCas13d split between residues 559/560; N and C fragments plain or fused to CID domains (protein)
chain 1: IEKKKSFAKGMGVKSTLVSGSKVYMTTFAEGSDARLEKIVEGDSIRSVNEGEAFSAEMADKNAGYKIGNAKFSHPKGYAVVANNPLYTGPVQQDMLGLKETLEKRYFGESADGNDNICIQVIHNILDIEKILAEYITNAAYAVNNISGLDKDIIGFGKFSTVYTYDEFKDPEHHRAAFNNNDKLINAIKAQYDEFDNFLDNPRLGYFGQAFFSKEGRNYIINYGNECYDILALLSGLRHWVVHNNEEESRISRTWLYNLDKNLDNEYISTLNYLYDRITNELTNSFSKNSAANVNYIAETLGINPAEFAEQYFRFSIMKEQKNLGFNITKLREVMLDRKDMSEIRKNHKVFDSIRTKVYTMMDFVIYRYYIEEDAKVAAANKSLPDNEKSLSEKDIFVINLRGSFNDDQKDALYYDEANRIWRKLENIMHNIKEFRGNKTREYKKKDAPRLPRILPAGRDVSAFSKLMYALTMFLDGKEINDLLTTLINKFDNIQSFLKVMPLIGVNAKFVEEYAFFKDSAKIADELRLIKSFARMGEPIADARRAMYIDAIRILGTNL
chain 2: SYDELKALADTFSLDENGNKLKKGKHGMRNFIINNVISNKRFHYLIRYGDPAHLHEIAKNEAVVKFVLGRIADIQKKQGQNGKNQIDRYYETCIGKDKGKSVSEKVDALTKIITGMNYDQFDKKRSVIEDTGRENAEREKFKKIISLYLTVIYHILKNIVNINARYVIGFHCVERDAQLYKEKGYDINLKKLEEKGFSSVTKLCAGIDETAPDKRKDVEKEMAERAKESIDSLESANPKLYANYIKYSDEKKAEEFTRQINREKAKTALNAYLRNTKWNVIIREDLLRIDNKTCTLFRNKAVHLEVARYVHAYINDIAEVNSYFQLYHYIMQRIIMNERYEKSSGKVSEYFDAVNDEKKYNDRLLKLLCVPFGYCIPRFKNLSIEALFDRNEAAKFDKEKKKVSGNS
B2: SEQ ID NO: 800: inducible system polypeptide, probably Table 20 (GID-GAI) (protein)
chain: MAPKKKRKVGIHGVPAAKRDHHHHHHQDKKTMMMNEEDDGNGMDELLAVLGYKVRSSEMADVAQKLEQLEVMMSNVQEDDLSQLATETVHYNPAELYTWLDSMLTDLNSGGSGSGSSGGSGTALADTFSLDENGNKLKKGKHGMRNFIINNVISNKRFHYLIRYGDPAHLHEIAKNEAVVKFVLGRIADIQKKQGQNGKNQIDRYYETCIGKDKGKSVSEKVDALTKIITGMNYDQFDKKRSVIEDTGRENAEREKFKKIISLYLTVIYHILKNIVNINARYVIGFHCVERDAQLYKEKGYDINLKKLEEKGFSSVTKLCAGIDETAPDKRKDVEKEMAERAKESIDSLESANPKLYANYIKYSDEKKAEEFTRQINREKAKTALNAYLRNTKWNVIIREDLLRIDNKTCTLFRNKAVHLEVARYVHAYINDIAEVNSYFQLYHYIMQRIIMNERYEKSSGKVSEYFDAVNDEKKYNDRLLKLLCVPFGYCIPRFKNLSIEALFDRNEAAKFDKEKKKVSGNSSGSGPKKKRKV

Assays:
[1] = tested on: mCherry; test: mCherry knockdown by inducible split RfxCas13d (ON switch) in transfected HEK 293 FT cells, flow cytometry; format: cell-based
[2] = tested on: mCherry expression in HEK293 FT cells; test: Inducible split RfxCas13d (GIB, RAP, ABA, Dano, GRZ CID domains; NES/NLS variants) mCherry knockdown, leakiness and inducibility; format: cell-based; settings: inducible polypeptide systems of Tables 18-22
Method in brief: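 mCherry knockdown in HEK293 FT cells by split RfxCas13d halves fused to GIB, RAP, ABA, Dano or GRZ dimerization domains, scored with and without inducer. Leakiness score and induced activity were derived per split site; NES/NLS compartmentalization and reversed CID orientation were also tested.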

Row | Molecule | induced knockdown ([1]; Danoprevir-inducible, 2 NESs on N terminal moiety and 2 NLSs on C terminal moiety) | performance after NES/NLS compartmentalization ([1]; GIB induced split pairs, NES on one moiety, NLS on the other) | performance of reversed CID orientation versus original orientation ([1]; GIB: N ss-GAI/GID-ss C, ABA: N ss-PYL/ABI-ss C) | target knockdown efficiency ([1]; split pair) | knockdown across the various CID systems ([1]; split pairs coupled with CID domains, with inducer) | performance in the tested conditions [2]
1 | B1 | over 60% | high inducibility with minimal leakiness | stronger inducibility and weaker leakiness | more than 80% | efficient knockdown; also recorded: consistently strong drug-induced knockdown | 
2 | B2 |  |  |  |  |  | highest performance
